Data reported in article PMC11699742.

Target: α-Synuclein (UniProt P37840)

Sequence of DnaK from E. coli (P0A6Y8 whole entry): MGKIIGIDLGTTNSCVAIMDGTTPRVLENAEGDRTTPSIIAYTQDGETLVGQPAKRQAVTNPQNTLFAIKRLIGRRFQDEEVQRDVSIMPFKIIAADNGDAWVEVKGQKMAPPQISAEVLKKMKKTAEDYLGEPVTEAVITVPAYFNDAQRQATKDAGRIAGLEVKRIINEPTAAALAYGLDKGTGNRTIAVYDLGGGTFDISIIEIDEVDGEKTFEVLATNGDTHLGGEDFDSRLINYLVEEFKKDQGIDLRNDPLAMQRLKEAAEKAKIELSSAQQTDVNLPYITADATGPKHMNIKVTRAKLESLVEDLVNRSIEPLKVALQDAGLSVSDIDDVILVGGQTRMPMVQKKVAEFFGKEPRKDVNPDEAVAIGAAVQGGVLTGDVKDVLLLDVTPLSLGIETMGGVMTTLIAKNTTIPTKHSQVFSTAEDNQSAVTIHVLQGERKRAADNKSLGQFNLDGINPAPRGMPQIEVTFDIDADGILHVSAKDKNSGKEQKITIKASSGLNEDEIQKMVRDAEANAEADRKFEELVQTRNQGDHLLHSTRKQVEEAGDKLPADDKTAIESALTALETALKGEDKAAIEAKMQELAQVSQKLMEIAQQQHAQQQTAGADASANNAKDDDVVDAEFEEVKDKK

ThT fibrillation of 50 µM α-Syn monomer with 0.5 µM DnaK, with 2 mM ATP: relative decrease in vmax (1.32 h^-1 to 0.49 h^-1) and end signal (176,900–53,000): 64% | ThT fibrillation of 50 µM α-Syn monomer with 0.5 µM DnaK, without ATP: relative decrease in vmax (0.99 h^-1 to 0.55 h^-1) and end signal (43,000-24,600): 45%
Substance: DnaK from E. coli (from UniProt P0A6Y8 1-638) (natural protein)
